Numbered stars: 1 amine (or outer) side, 2 acyl side, 3 side chain; on linkers, the order of the positions; unused ones are H or OH. Side chains are listed from the residue outwards. Ends that are not written are not given here. * marks the point of attachment. γGlu = O=C(O)[C@H](CCC(=O)[*:2])N[*:1]; Palmitoyl = CCCCCCCCCCCCCCCC(=O)*
T1: human glucose-dependent insulinotropic peptide (gastric inhibitory polypeptide) receptor (human) (UniProt P48546)
T1 sequence (looked up): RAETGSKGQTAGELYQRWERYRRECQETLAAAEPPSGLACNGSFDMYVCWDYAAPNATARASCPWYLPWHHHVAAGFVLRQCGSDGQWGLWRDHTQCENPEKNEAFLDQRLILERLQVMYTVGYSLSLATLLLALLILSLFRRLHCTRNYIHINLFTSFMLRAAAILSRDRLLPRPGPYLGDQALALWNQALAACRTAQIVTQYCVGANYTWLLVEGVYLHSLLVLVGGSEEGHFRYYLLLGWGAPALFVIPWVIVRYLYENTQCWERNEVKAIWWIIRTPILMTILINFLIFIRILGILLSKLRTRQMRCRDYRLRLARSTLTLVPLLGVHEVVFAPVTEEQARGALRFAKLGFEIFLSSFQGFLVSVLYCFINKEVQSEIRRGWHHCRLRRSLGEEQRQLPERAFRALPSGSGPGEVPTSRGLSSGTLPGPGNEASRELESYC


Experiments:
Assay in all cases: cell-based or functional assay
human glucagon receptor = human glucagon receptor (human, UniProt P47871 26-477)
Chain of human glucagon receptor (P47871 26-477): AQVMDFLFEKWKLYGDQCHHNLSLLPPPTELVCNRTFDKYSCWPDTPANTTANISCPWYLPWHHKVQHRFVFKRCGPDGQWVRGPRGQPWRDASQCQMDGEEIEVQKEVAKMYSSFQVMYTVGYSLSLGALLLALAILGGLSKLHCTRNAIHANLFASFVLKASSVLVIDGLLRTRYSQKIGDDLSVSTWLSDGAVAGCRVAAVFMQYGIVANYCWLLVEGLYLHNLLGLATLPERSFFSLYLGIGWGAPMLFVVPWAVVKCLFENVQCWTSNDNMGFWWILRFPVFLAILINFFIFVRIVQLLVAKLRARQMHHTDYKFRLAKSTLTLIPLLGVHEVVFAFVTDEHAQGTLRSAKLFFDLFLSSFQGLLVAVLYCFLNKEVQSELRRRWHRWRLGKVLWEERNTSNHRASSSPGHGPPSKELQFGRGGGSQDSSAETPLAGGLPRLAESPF

human GLP-1 receptor = human GLP-1 receptor (human, UniProt P43220 24-463)
Chain of human GLP-1 receptor (P43220 24-463): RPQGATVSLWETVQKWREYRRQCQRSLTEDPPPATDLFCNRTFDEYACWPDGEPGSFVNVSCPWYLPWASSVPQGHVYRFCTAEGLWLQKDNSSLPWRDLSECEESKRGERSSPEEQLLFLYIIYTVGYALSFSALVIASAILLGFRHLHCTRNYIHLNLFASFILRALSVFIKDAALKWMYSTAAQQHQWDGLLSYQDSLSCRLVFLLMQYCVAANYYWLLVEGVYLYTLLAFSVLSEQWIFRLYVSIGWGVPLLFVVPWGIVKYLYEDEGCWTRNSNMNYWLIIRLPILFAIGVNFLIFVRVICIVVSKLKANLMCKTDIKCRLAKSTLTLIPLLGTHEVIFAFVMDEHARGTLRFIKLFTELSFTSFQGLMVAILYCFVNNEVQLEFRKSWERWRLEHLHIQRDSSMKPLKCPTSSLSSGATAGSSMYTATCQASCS

[1] = target: T1, human glucose-dependent insulinotropic peptide (gastric inhibitory polypeptide) receptor (human)

| Binder | cAMP EC50 (assay 1) (human glucagon receptor) [nM] | cAMP EC50 (assay 1) (human GLP-1 receptor) [nM] | cAMP EC50 (assay 1) [1] [nM] |
| --- | --- | --- | --- |
| HSQGTFTSDYSKYK([γGlu-Palmitoyl])DSRAAQDFVQWLEAGG-NH2 (N-terminus assumed; SMILES CCCCCCCCCCCCCCCC(=O)N[C@@H](CCC(=O)NCCCC[C@H](NC(=O)[C@H](Cc1ccc(O)cc1)NC(=O)[C@H](CCCCN)NC(=O)[C@H](CO)NC(=O)[C@H](Cc1ccc(O)cc1)NC(=O)[C@H](CC(=O)O)NC(=O)[C@H](CO)NC(=O)[C@@H](NC(=O)[C@H](Cc1ccccc1)NC(=O)[C@@H](NC(=O)CNC(=O)[C@H](CCC(N)=O)NC(=O)[C@H](CO)NC(=O)[C@@H](N)Cc1c[nH]cn1)[C@@H](C)O)[C@@H](C)O)C(=O)N[C@@H](CC(=O)O)C(=O)N[C@@H](CO)C(=O)N[C@@H](CCCNC(=N)N)C(=O)N[C@@H](C)C(=O)N[C@@H](C)C(=O)N[C@@H](CCC(N)=O)C(=O)N[C@@H](CC(=O)O)C(=O)N[C@@H](Cc1ccccc1)C(=O)N[C@H](C(=O)N[C@@H](CCC(N)=O)C(=O)N[C@@H](Cc1c[nH]c2ccccc12)C(=O)N[C@@H](CC(C)C)C(=O)N[C@@H](CCC(=O)O)C(=O)N[C@@H](C)C(=O)NCC(=O)NCC(N)=O)C(C)C)C(=O)O) [g817] | 0.00168 | 0.0251 | 15.2 |
| HSQGTFTSDYSEYK([γGlu-Palmitoyl])DSRRARDFVEWLEAGG-NH2 (N-terminus assumed; SMILES CCCCCCCCCCCCCCCC(=O)N[C@@H](CCC(=O)NCCCC[C@H](NC(=O)[C@H](Cc1ccc(O)cc1)NC(=O)[C@H](CCC(=O)O)NC(=O)[C@H](CO)NC(=O)[C@H](Cc1ccc(O)cc1)NC(=O)[C@H](CC(=O)O)NC(=O)[C@H](CO)NC(=O)[C@@H](NC(=O)[C@H](Cc1ccccc1)NC(=O)[C@@H](NC(=O)CNC(=O)[C@H](CCC(N)=O)NC(=O)[C@H](CO)NC(=O)[C@@H](N)Cc1c[nH]cn1)[C@@H](C)O)[C@@H](C)O)C(=O)N[C@@H](CC(=O)O)C(=O)N[C@@H](CO)C(=O)N[C@@H](CCCNC(=N)N)C(=O)N[C@@H](CCCNC(=N)N)C(=O)N[C@@H](C)C(=O)N[C@@H](CCCNC(=N)N)C(=O)N[C@@H](CC(=O)O)C(=O)N[C@@H](Cc1ccccc1)C(=O)N[C@H](C(=O)N[C@@H](CCC(=O)O)C(=O)N[C@@H](Cc1c[nH]c2ccccc12)C(=O)N[C@@H](CC(C)C)C(=O)N[C@@H](CCC(=O)O)C(=O)N[C@@H](C)C(=O)NCC(=O)NCC(N)=O)C(C)C)C(=O)O) [g876] | 0.0104 | 0.0863 | 79 |
| HSQGTFTSDYSKYK([γGlu-Palmitoyl])DSRRARDFVEWLEAGG-NH2 (N-terminus assumed; SMILES CCCCCCCCCCCCCCCC(=O)N[C@@H](CCC(=O)NCCCC[C@H](NC(=O)[C@H](Cc1ccc(O)cc1)NC(=O)[C@H](CCCCN)NC(=O)[C@H](CO)NC(=O)[C@H](Cc1ccc(O)cc1)NC(=O)[C@H](CC(=O)O)NC(=O)[C@H](CO)NC(=O)[C@@H](NC(=O)[C@H](Cc1ccccc1)NC(=O)[C@@H](NC(=O)CNC(=O)[C@H](CCC(N)=O)NC(=O)[C@H](CO)NC(=O)[C@@H](N)Cc1c[nH]cn1)[C@@H](C)O)[C@@H](C)O)C(=O)N[C@@H](CC(=O)O)C(=O)N[C@@H](CO)C(=O)N[C@@H](CCCNC(=N)N)C(=O)N[C@@H](CCCNC(=N)N)C(=O)N[C@@H](C)C(=O)N[C@@H](CCCNC(=N)N)C(=O)N[C@@H](CC(=O)O)C(=O)N[C@@H](Cc1ccccc1)C(=O)N[C@H](C(=O)N[C@@H](CCC(=O)O)C(=O)N[C@@H](Cc1c[nH]c2ccccc12)C(=O)N[C@@H](CC(C)C)C(=O)N[C@@H](CCC(=O)O)C(=O)N[C@@H](C)C(=O)NCC(=O)NCC(N)=O)C(C)C)C(=O)O) [g805] | 0.00144 | 0.0228 | 99.7 |
| HSQGTFTSDYSRYK([γGlu-Palmitoyl])DSRSARDFVAWLEA-NH2 (N-terminus assumed; SMILES CCCCCCCCCCCCCCCC(=O)N[C@@H](CCC(=O)NCCCC[C@H](NC(=O)[C@H](Cc1ccc(O)cc1)NC(=O)[C@H](CCCNC(=N)N)NC(=O)[C@H](CO)NC(=O)[C@H](Cc1ccc(O)cc1)NC(=O)[C@H](CC(=O)O)NC(=O)[C@H](CO)NC(=O)[C@@H](NC(=O)[C@H](Cc1ccccc1)NC(=O)[C@@H](NC(=O)CNC(=O)[C@H](CCC(N)=O)NC(=O)[C@H](CO)NC(=O)[C@@H](N)Cc1c[nH]cn1)[C@@H](C)O)[C@@H](C)O)C(=O)N[C@@H](CC(=O)O)C(=O)N[C@@H](CO)C(=O)N[C@@H](CCCNC(=N)N)C(=O)N[C@@H](CO)C(=O)N[C@@H](C)C(=O)N[C@@H](CCCNC(=N)N)C(=O)N[C@@H](CC(=O)O)C(=O)N[C@@H](Cc1ccccc1)C(=O)N[C@H](C(=O)N[C@@H](C)C(=O)N[C@@H](Cc1c[nH]c2ccccc12)C(=O)N[C@@H](CC(C)C)C(=O)N[C@@H](CCC(=O)O)C(=O)N[C@@H](C)C(N)=O)C(C)C)C(=O)O) [g850] | 0.00219 | 0.0212 | 89.6 |
| HSQGTFTSDYSKYK([γGlu-Palmitoyl])DSERARDFVEWLEAGG-NH2 (N-terminus assumed; SMILES CCCCCCCCCCCCCCCC(=O)N[C@@H](CCC(=O)NCCCC[C@H](NC(=O)[C@H](Cc1ccc(O)cc1)NC(=O)[C@H](CCCCN)NC(=O)[C@H](CO)NC(=O)[C@H](Cc1ccc(O)cc1)NC(=O)[C@H](CC(=O)O)NC(=O)[C@H](CO)NC(=O)[C@@H](NC(=O)[C@H](Cc1ccccc1)NC(=O)[C@@H](NC(=O)CNC(=O)[C@H](CCC(N)=O)NC(=O)[C@H](CO)NC(=O)[C@@H](N)Cc1c[nH]cn1)[C@@H](C)O)[C@@H](C)O)C(=O)N[C@@H](CC(=O)O)C(=O)N[C@@H](CO)C(=O)N[C@@H](CCC(=O)O)C(=O)N[C@@H](CCCNC(=N)N)C(=O)N[C@@H](C)C(=O)N[C@@H](CCCNC(=N)N)C(=O)N[C@@H](CC(=O)O)C(=O)N[C@@H](Cc1ccccc1)C(=O)N[C@H](C(=O)N[C@@H](CCC(=O)O)C(=O)N[C@@H](Cc1c[nH]c2ccccc12)C(=O)N[C@@H](CC(C)C)C(=O)N[C@@H](CCC(=O)O)C(=O)N[C@@H](C)C(=O)NCC(=O)NCC(N)=O)C(C)C)C(=O)O) [g836] | 0.0155 | 0.124 | 100 |
| HSQGTFTSDYSKYK([γGlu-Palmitoyl])DSRRARDFVAWLEA-NH2 (N-terminus assumed; SMILES CCCCCCCCCCCCCCCC(=O)N[C@@H](CCC(=O)NCCCC[C@H](NC(=O)[C@H](Cc1ccc(O)cc1)NC(=O)[C@H](CCCCN)NC(=O)[C@H](CO)NC(=O)[C@H](Cc1ccc(O)cc1)NC(=O)[C@H](CC(=O)O)NC(=O)[C@H](CO)NC(=O)[C@@H](NC(=O)[C@H](Cc1ccccc1)NC(=O)[C@@H](NC(=O)CNC(=O)[C@H](CCC(N)=O)NC(=O)[C@H](CO)NC(=O)[C@@H](N)Cc1c[nH]cn1)[C@@H](C)O)[C@@H](C)O)C(=O)N[C@@H](CC(=O)O)C(=O)N[C@@H](CO)C(=O)N[C@@H](CCCNC(=N)N)C(=O)N[C@@H](CCCNC(=N)N)C(=O)N[C@@H](C)C(=O)N[C@@H](CCCNC(=N)N)C(=O)N[C@@H](CC(=O)O)C(=O)N[C@@H](Cc1ccccc1)C(=O)N[C@H](C(=O)N[C@@H](C)C(=O)N[C@@H](Cc1c[nH]c2ccccc12)C(=O)N[C@@H](CC(C)C)C(=O)N[C@@H](CCC(=O)O)C(=O)N[C@@H](C)C(N)=O)C(C)C)C(=O)O) [g804] | 0.00195 | 0.0715 | 99.7 |
| HSQGTFTSDYSKYLDK([γGlu-Palmitoyl])RRARDFVAWLEAGG-NH2 (N-terminus assumed; SMILES CCCCCCCCCCCCCCCC(=O)N[C@@H](CCC(=O)NCCCC[C@H](NC(=O)[C@H](CC(=O)O)NC(=O)[C@H](CC(C)C)NC(=O)[C@H](Cc1ccc(O)cc1)NC(=O)[C@H](CCCCN)NC(=O)[C@H](CO)NC(=O)[C@H](Cc1ccc(O)cc1)NC(=O)[C@H](CC(=O)O)NC(=O)[C@H](CO)NC(=O)[C@@H](NC(=O)[C@H](Cc1ccccc1)NC(=O)[C@@H](NC(=O)CNC(=O)[C@H](CCC(N)=O)NC(=O)[C@H](CO)NC(=O)[C@@H](N)Cc1c[nH]cn1)[C@@H](C)O)[C@@H](C)O)C(=O)N[C@@H](CCCNC(=N)N)C(=O)N[C@@H](CCCNC(=N)N)C(=O)N[C@@H](C)C(=O)N[C@@H](CCCNC(=N)N)C(=O)N[C@@H](CC(=O)O)C(=O)N[C@@H](Cc1ccccc1)C(=O)N[C@H](C(=O)N[C@@H](C)C(=O)N[C@@H](Cc1c[nH]c2ccccc12)C(=O)N[C@@H](CC(C)C)C(=O)N[C@@H](CCC(=O)O)C(=O)N[C@@H](C)C(=O)NCC(=O)NCC(N)=O)C(C)C)C(=O)O) [g781] | 0.00286 | 0.104 | 402 |

Source: patent publication US20190185537A1 (AstraZeneca / MedImmune, published 2019)
